# Experimental data: patent publication US20180044401A1 (KANEKA, published 2018)
# How the values were obtained:
# [1] = molecular target: T1, IgG-Fab derived from anti-RSV monoclonal antibody (Palivizumab); test: SPR Biacore 3000, Fab immobilized on CM5, peptide flown, 25° C., pH 7.4, 1:1 model
# T1 construct: Humanized monoclonal IgG fragmented with papain; Immobilized on a CM5 sensor tip; also called Anti-RSV antibody - Fab; Synagis Fab fragment
# Procedure: (§1) The affinity of the peptide obtained in the above-described Example 1(2) for the Fc region and Fab region of anti-RSV monoclonal antibody was evaluated using a biosensor Biacore3000 (manufactured by GE Healthcare Bioscience) utilizing surface plasmon resonance. In the present Example, the IgG-Fc or IgG-Fab obtained in the above-described Example 2(1) was immobilized on a sensor tip, and the peptide was flown on the tip to detect the interaction between the two. The IgG-Fab or IgG-Fc was immobilized on a sensor tip CM5 by amine coupling method using N-hydroxysuccinimide (NHS) and N-ethyl-N′-(3-dimethylaminopropyl)carbodiimide hydrochloride (EDC), and ethanolamine was used for blocking. All of the sensor tip and reagents for immobilization was manufactured by GE Healthcare Bioscience. The IgG-Fab solution was diluted to about 10 times using a buffer for immobilization (10 mM AcOH—AcONa, pH 4.5), and the IgG-Fab was immobilized on the sensor tip in accordance with the protocol attached to the Biacore 3000. In addition, a reference cell as negative control was also prepared by activating another flow cell on the tip with EDC/NHS and then immobilizing ethanolamine only. Peptide solutions having concentrations of 16 nM, 64 nM or 256 nM were prepared using a running buffer (20 mM NaH₂PO₄—Na₂HPO₄, 150 mM NaCl, 0.005% P-20, pH 7.4). Each peptide solution was added to the sensor tip in a flow rate of 40 μL/min for 1 minute. Bonding response curves at the time of addition (association phase, 1 minute) and after the addition (dissociation phase, 1 minute) were sequentially obtained at a measurement temperature of 25° C. After each measurement, about 20 mM NaOH was added for wash.
# [2] = molecular target: T2, IgG-Fc derived from anti-RSV monoclonal antibody (Palivizumab) (human, UniProt P01857-1 108-330 = IgG part, limits assumed); test: SPR Biacore 3000, Fc immobilized on CM5, peptide flown, 25° C., pH 7.4, 1:1 model
# T2 construct: domain: Fc region; Immobilized on a CM5 sensor tip by amine coupling; also called Anti-RSV antibody - Fc; Synagis Fc fragment
# Procedure: as §1
# [3] = molecular target: T3, IgG-Fab prepared from anti-TNFα monoclonal antibody (Remicade); test: SPR Biacore 3000, Fab immobilized on CM5, peptide at 25, 100, 400 nM, 1:1 model
# T3 construct: Chimeric antibody; also called Anti-TNFα antibody - Fab; IgG-Fab of anti-TNFα monoclonal antibody
# Procedure: as §1, with “Peptide solutions having concentrations of 16 nM, 64 nM or 256 nM were prepared using a running buffer (20 mM NaH₂PO₄—Na₂HPO₄, 150 mM NaCl, 0.005% P-20, pH 7.4).” left out
# (§2) Also, the affinity of the peptide according to the present invention (SEQ ID NO: 2) for IgG-Fab prepared from anti-EGFR monoclonal antibody (“Erbitux” sold by Bristol-Myers Squibb) and anti-TNFα monoclonal antibody (“Remicade” sold by Mitsubishi Tanabe Pharma Corporation) was evaluated.
# [4] = molecular target: T4, IgG-Fab prepared from anti-EGFR monoclonal antibody (Erbitux); test: as above
# T4 construct: Chimeric antibody; also called Anti-EGFR antibody - Fab
# Procedure: as §1, with “Peptide solutions having concentrations of 16 nM, 64 nM or 256 nM were prepared using a running buffer (20 mM NaH₂PO₄—Na₂HPO₄, 150 mM NaCl, 0.005% P-20, pH 7.4).” left out
# as §2
binder,measurement,setting,value
"immunoglobulin G-binding peptide having the amino acid sequence of SEQ ID NO: 2 (designed binder, Expressed as a GST fusion in E. coli; GST was cleaved off with PreScission Protease before the assay; also called SpG mutant) GPLGSTTYKLILNGKTLTGYTTAIAADAATAEIVLKQFANDNGIDGEWTYDDATKTFTVTE",Ka,[1],2e+07 M⁻¹
same,koff,[1],0.003 s⁻¹
same,kon,[1],66000 M⁻¹ s⁻¹
same,Ka,[2],3.5e+06 M⁻¹
same,koff,[2],0.028 s⁻¹
same,kon,[2],97000 M⁻¹ s⁻¹
same,Ka,[3],4e+07 M⁻¹
same,koff,[3],0.01 s⁻¹
same,kon,[3],413000 M⁻¹ s⁻¹
same,Ka,[4],6.5e+07 M⁻¹
same,koff,[4],0.039 s⁻¹
same,kon,[4],252000 M⁻¹ s⁻¹
